# Laboratory results published in patent publication US20140341881A1 (DERMADIS, published 2014).
# T1: human neutrophil elastase (HNE) (human, UniProt P08246 30-247, limits assumed)
# T1 sequence (looked up): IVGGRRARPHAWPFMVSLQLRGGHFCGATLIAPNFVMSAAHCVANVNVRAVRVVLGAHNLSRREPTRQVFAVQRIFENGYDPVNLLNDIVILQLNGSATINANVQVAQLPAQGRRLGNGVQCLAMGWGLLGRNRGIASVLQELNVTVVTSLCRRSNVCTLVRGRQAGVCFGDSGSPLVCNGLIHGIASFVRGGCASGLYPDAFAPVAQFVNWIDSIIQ
# T2: human kallikrein 14 (hK14) (human, UniProt Q9P0G3 25-251, limits assumed)
# T2 construct: range counted on GenBank AAK48524 (printed), which may differ from the UniProt numbering; also called recombinant hK14
# T2 sequence (looked up): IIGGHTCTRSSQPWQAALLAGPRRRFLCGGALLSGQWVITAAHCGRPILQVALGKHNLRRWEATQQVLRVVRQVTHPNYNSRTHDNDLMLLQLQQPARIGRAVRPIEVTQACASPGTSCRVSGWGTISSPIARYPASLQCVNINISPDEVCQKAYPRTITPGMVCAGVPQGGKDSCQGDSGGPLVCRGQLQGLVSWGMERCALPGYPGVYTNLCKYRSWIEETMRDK
# T3: human kallikrein 5 (hK5) (human, UniProt Q9Y337 67-293, limits assumed)
# T3 sequence (looked up): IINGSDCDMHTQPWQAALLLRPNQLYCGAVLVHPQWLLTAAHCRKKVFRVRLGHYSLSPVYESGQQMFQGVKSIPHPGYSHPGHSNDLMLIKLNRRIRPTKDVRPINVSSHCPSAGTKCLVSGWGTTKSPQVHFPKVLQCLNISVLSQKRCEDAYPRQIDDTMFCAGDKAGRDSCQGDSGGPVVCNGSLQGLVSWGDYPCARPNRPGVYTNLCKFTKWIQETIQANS
# T4: human kallikrein 8 (hK8) (human, UniProt O60259 33-260)
# T4 sequence (looked up): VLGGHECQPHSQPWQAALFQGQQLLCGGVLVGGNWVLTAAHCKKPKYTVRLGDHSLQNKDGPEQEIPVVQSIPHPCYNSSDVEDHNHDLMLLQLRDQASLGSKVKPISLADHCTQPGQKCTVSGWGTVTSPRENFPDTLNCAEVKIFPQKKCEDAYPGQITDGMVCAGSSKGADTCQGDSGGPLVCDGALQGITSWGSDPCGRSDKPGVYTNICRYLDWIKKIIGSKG
# T5: human kallikrein 13 (hK13) (human, UniProt Q9UKR3 26-277, limits assumed)
# T5 sequence (looked up): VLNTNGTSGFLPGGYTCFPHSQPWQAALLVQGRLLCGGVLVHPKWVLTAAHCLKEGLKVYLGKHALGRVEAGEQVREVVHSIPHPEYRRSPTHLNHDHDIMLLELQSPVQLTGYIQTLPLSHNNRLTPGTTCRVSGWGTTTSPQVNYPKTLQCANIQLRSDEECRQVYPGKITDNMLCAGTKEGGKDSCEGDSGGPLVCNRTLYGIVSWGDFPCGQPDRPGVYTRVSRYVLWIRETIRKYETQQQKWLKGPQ
# Experiments:
# human kallikrein 2 (hK2) [1] = molecular target: T6, human kallikrein 2 (hK2) (human, UniProt P20151 25-261); assay: cell-based or functional assay
# human kallikrein hK1 = human kallikrein hK1 (human, UniProt P06870 25-262); assay: cell-based or functional assay
# [2] = molecular target: T7, human chymotrypsin (Chtr) (human, UniProt P17538 19-263); assay: cell-based or functional assay
# [3] = molecular target: T8, human plasma kallikrein (PK) (human, UniProt P03952 20-638); assay: cell-based or functional assay
# [4] = molecular target: T9, urokinase plasminogen activator (uPA) (UniProt P00749 21-431, limits assumed); assay: cell-based or functional assay
# [5] = molecular target: T1, human neutrophil elastase (HNE); assay: cell-based or functional assay
# human kallikrein 2 (hK2) [6] = molecular target: T6, human kallikrein 2 (hK2); assay: progress curve, pseudo-first order, fluorogenic substrate
# Description: (§1) Under these conditions, a fixed amount of enzyme (2 nM) was mixed with different concentrations of inhibitor (0-800 nM) and an excess of substrate (10 μM). Each reaction was made in reaction buffer (50 mM Tris pH 7.5, 150 mM NaCl, 0,05% Triton X-100, 0.01% BSA) at 25° C. for 45 min and the rate of product formation was measured using a FLₓ800 fluorescence 96-well microplate reader (Biotek, USA). In this model, inhibition is considered to be irreversible over the course of reaction and the progress of enzyme activity is expressed by product formation (P), beginning at a rate (vz) and is inhibited over time (t) at a first-order rate (kobs), rate constant that is dependent only on inhibitor concentration.
# [7] = molecular target: T7, human chymotrypsin (Chtr); assay: as above
# Description: as §1
# [8] = molecular target: T8, human plasma kallikrein (PK); assay: as above
# Description: as §1
# [9] = molecular target: T1, human neutrophil elastase (HNE); assay: as above
# Description: as §1
# human kallikrein 2 (hK2) [10] = molecular target: T6, human kallikrein 2 (hK2); assay: residual enzyme activity against [I]o/[E]o, fluorogenic substrate
# [11] = molecular target: T7, human chymotrypsin (Chtr); assay: as above
# [12] = molecular target: T8, human plasma kallikrein (PK); assay: as above
# [13] = molecular target: T1, human neutrophil elastase (HNE); assay: as above
# [14] = molecular target: T2, human kallikrein 14 (hK14); assay: progress curve
# human kallikrein 2 (hK2) [15] = molecular target: T6, human kallikrein 2 (hK2); assay: cell-based or functional assay; remark: listed apart in the source
# [16] = molecular target: prostate specific antigen (PSA, hK3) (human, UniProt P07288 25-261); assay: cell-based or functional assay
# [17] = molecular target: T7, human chymotrypsin (Chtr); assay: cell-based or functional assay; remark: listed apart in the source
# [18] = molecular target: T8, human plasma kallikrein (PK); assay: cell-based or functional assay; remark: listed apart in the source
# [19] = molecular target: T1, human neutrophil elastase (HNE); assay: cell-based or functional assay; remark: listed apart in the source
# thrombin [20] = assay: cell-based or functional assay
# [21] = molecular target: T2, human kallikrein 14 (hK14); assay: cell-based or functional assay
# human kallikrein 4 (hK4) = human kallikrein 4 (hK4) (human, UniProt Q9Y5K2 31-254, limits assumed); assay: cell-based or functional assay
# human kallikrein 5 (hK5) = molecular target: T3, human kallikrein 5 (hK5); assay: cell-based or functional assay
# human kallikrein 6 (hK6) = human kallikrein 6 (hK6) (human, UniProt Q92876 22-244); assay: cell-based or functional assay
# human kallikrein 8 (hK8) = molecular target: T4, human kallikrein 8 (hK8); assay: cell-based or functional assay
# [22] = molecular target: T5, human kallikrein 13 (hK13); assay: cell-based or functional assay
# [23] = molecular target: T7, human chymotrypsin (Chtr); assay: cell-based or functional assay; remark: listed apart in the source
# [24] = molecular target: T8, human plasma kallikrein (PK); assay: cell-based or functional assay; remark: listed apart in the source
# [25] = molecular target: T9, urokinase plasminogen activator (uPA); assay: cell-based or functional assay; remark: listed apart in the source
# [26] = molecular target: T1, human neutrophil elastase (HNE); assay: cell-based or functional assay; remark: listed apart in the source
# thrombin [27] = assay: cell-based or functional assay; remark: listed apart in the source
# [28] = molecular target: T2, human kallikrein 14 (hK14); assay: cell-based or functional assay; remark: listed apart in the source
# [29] = molecular target: T2, human kallikrein 14 (hK14); assay: progress curve, pseudo-first order, 37 C
# Description: The association rate constants for interactions of hK14, with different inhibitors were determined under pseudo-first order conditions using the progress curve method (Morrison and Walsh, 1988). Under these conditions, a fixed amount of enzyme (2 nM) was mixed with different concentrations of inhibitor (0-80 nM) and an excess of substrate (20 μM). Reactions were performed in reaction buffer (50 mM Tris pH 7.5, 150 mM NaCl, 0.05% Triton X-100, 0.01% BSA) at 37° C. for 45 min and the rate of product formation was measured using a FLₓ800 fluorescence 96-well microplate reader (Biotek, USA) Inhibition is considered to be irreversible over the course of reaction and the progression of enzyme activity is expressed as product formation (P), beginning at a rate (vz) and is inhibited over time (t) at a first-order rate (kobs), where the rate constant is only dependent on the inhibitor concentration.
# Kinetic analysis of the inhibition of human hK14 by recombinant serpins were performed under pseudo-first-order conditions using an excess of inhibitor at various molar ratios of hK14. The time-dependent inactivation of the enzyme through reaction with serpin was monitored continuously, following the decrease in the rate of substrate turnover. Progress curves for reactions with different serpin concentrations were fitted to equation 1 to calculate values describing the rate constant (kobs). The association rate constants (kₐ) were determined from the slope of kobs values versus the concentration of the hK14 inhibitors.
# [30] = molecular target: T2, human kallikrein 14 (hK14); assay: residual hK14 activity against [I0]/[E0]
# Description: (§2) SI values of rAAT, rACT, and their variants were determined with hK14 incubating the protease with varying concentrations of inhibitor. After an incubation of 4 hours at 37° C. in reaction buffer (50 mM Tris, pH 7.5, 150 mM NaCl, 0.05% Triton X-100, 0.01% BSA), the residual activity was detected by the addition of fluorescent substrate (Boc-Val-Pro-Arg-AMC). Fluorescence was measured with excitation at 340 nm (±15) and emission at 485 nm (±10) in black 96 well plates using a microplate fluorescence reader FLₓ800 (Bio-Tek Instruments, Inc.). The SI value corresponds to the abscissa intercept of the linear regression analysis of fractional velocity (velocity of inhibited enzyme reaction (vi)/velocity of uninhibited enzyme reaction (v₀)) vs. the molar ratio of the inhibitor to enzyme ([I₀]/[E₀]).
# [31] = molecular target: T2, human kallikrein 14 (hK14); assay: residual hK14 activity after 4 h at 37 C against [I0]/[E0]
# Description: as §2
# T8 sequence (P03952 20-638 limits assumed): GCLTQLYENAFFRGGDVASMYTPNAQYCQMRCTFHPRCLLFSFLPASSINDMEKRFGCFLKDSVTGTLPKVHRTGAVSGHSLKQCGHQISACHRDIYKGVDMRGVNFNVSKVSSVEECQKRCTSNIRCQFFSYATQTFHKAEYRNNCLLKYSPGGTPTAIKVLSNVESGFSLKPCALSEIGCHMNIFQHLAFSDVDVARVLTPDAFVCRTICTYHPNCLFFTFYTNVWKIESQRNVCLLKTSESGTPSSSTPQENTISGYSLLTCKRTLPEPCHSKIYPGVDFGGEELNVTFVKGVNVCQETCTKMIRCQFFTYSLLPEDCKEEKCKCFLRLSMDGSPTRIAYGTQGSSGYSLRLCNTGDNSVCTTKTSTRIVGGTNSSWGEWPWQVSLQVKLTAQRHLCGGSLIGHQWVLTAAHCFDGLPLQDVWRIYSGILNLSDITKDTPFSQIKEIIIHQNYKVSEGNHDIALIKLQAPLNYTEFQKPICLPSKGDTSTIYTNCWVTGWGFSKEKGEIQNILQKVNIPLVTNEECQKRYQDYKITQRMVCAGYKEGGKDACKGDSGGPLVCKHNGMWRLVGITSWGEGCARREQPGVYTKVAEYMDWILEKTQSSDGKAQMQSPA
# T7 sequence (P17538 19-263): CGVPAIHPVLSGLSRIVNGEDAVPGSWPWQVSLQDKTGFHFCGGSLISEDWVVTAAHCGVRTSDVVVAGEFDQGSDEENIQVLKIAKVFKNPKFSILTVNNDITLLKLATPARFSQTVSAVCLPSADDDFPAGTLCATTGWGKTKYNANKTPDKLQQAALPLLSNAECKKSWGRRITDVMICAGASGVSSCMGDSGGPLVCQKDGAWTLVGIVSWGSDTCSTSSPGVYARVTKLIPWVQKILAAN
# human kallikrein 4 (hK4), sequence (Q9Y5K2 31-254 limits assumed): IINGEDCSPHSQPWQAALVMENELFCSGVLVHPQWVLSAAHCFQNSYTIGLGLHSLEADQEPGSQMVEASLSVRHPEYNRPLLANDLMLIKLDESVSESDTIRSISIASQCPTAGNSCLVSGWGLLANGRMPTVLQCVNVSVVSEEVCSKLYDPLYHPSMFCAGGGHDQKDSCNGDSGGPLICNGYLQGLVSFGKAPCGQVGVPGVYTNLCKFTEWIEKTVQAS
binder,measurement,setting,value
"rACT8.20 (other, recombinant alpha-1-antichymotrypsin (serpin) variant, RSL substrate peptide LRSRA; N-terminal His tag, E. coli TG1; also called MD820; MD 820) MRGSHHHHHHSRHPNSPLDEENLTQENQDRGTHVDLGLASANVDFAFSLYKQLVLKAPDKNVIFSPLSISTALAFLSLGAHNTTLTEILKGLKFNLTETSEAEIHQSFQHLLRTLNQSSDELQLSMGNAMFVKEQLSLLDRFTEDAKRLYGSEAFATDFQDSAAAKKLINDYVKNGTRGKITDLIKDLDSQTMMVLVNYIFFKAKWEMPFDPQDTHQSRFYLSKKKWVMVPMMSLHHLTIPYFRDEELSCTVVELKYTGNASALFILPDQDKMEEVEAMLLPETLKRWRDSLEFREIGELYLPKFSISRDYNLNDILLQLGIEEAFTSKADLSGITGARNLAVSQVVHKAVLDVFEEGTEASAATAVKITLRSRAVETRTIVRFNRPFLMIIVPTDTQNIFFMSKVTNPKQA",INHIBITION %,human kallikrein 2 (hK2) [1],95%
same,INHIBITION %,human kallikrein hK1,0%
same,INHIBITION %,[2],66%
same,INHIBITION %,[3],54%
same,INHIBITION %,[4],0%
same,INHIBITION %,[5],30%
same,kon,human kallikrein 2 (hK2) [6],1780 M⁻¹ s⁻¹
same,kon,[7],905 M⁻¹ s⁻¹
same,kon,[8],424 M⁻¹ s⁻¹
same,kon,[9],158 M⁻¹ s⁻¹
same,SI (stoichiometry of inhibition),human kallikrein 2 (hK2) [10],105
same,SI (stoichiometry of inhibition),[11],134
same,SI (stoichiometry of inhibition),[12],150
same,SI (stoichiometry of inhibition),[13],334
"ACTE8 (other, also called rACTE8) MRGSHHHHHHSRHPNSPLDEENLTQENQDRGTHVDLGLASANVDFAFSLYKQLVLKAPDKNVIFSPLSISTALAFLSLGAHNTTLTEILKGLKFNLTETSEAEIHQSFQHLLRTLNQSSDELQLSMGNAMFVKEQLSLLDRFTEDAKRLYGSEAFATDFQDSAAAKKLINDYVKNGTRGKITDLIKDLDSQTMMVLVNYIFFKAKWEMPFDPQDTHQSRFYLSKKKWVMVPMMSLHHLTIPYFRDEELSCTVVELKYTGNASALFILPDQDKMEEVEAMLLPETLKRWRDSLEFREIGELYLPKFSISRDYNLNDILLQLGIEEAFTSKADLSGITGARNLAVSQVVHKAVLDVFEEGTEASAATAVKILQRAILVETRTIVRFNRPFLMIIVPTDTQNIFFMSKVTNPKQA",kon,[14],575000 M⁻¹ s⁻¹
same,Percentage inhibition,human kallikrein 2 (hK2) [15],100%
same,Percentage inhibition,[16],0%
same,Percentage inhibition,[17],14%
same,Percentage inhibition,[18],36%
same,Percentage inhibition,[19],0%
same,Percentage inhibition,thrombin [20],0%
same,Percentage inhibition,[21],100%
same,Percentage inhibition,human kallikrein 4 (hK4),100%
same,Percentage inhibition,human kallikrein 5 (hK5),100%
same,Percentage inhibition,human kallikrein 6 (hK6),72%
same,Percentage inhibition,human kallikrein 8 (hK8),34%
same,Percentage inhibition,[22],0%
same,% Inhibition,[23],14%
same,% Inhibition,[24],36%
same,% Inhibition,[25],0%
same,% Inhibition,[26],0%
same,% Inhibition,thrombin [27],0%
same,% Inhibition,[28],100%
same,kon,[29],575000 M⁻¹ s⁻¹
same,SI (stoichiometry of inhibition),[30],1.2
same,SI (stoichiometry of inhibition),[31],1.2
